Legend:
[1] = system: Esophageal carcinoma cell line EC-GI-10; assay: In vivo antitumor effect, EC-GI-10 subcutaneous transplant model; settings: 0.4 mg/kg, tail vein, on Day 35, female NSG mice
Procedure: (§1) The antitumor effects of the antibody-drug conjugates were evaluated by using animal models in which cells of a human tumor cell line had been transplanted into immunodeficient mice, or cells of a mouse tumor cell line had been transplanted into immunocompetent mice. 4 to 6 Week-old SCID mice (CB17/Icr-Prkdc[scid]/CrlCrlj, Jackson Laboratory Japan, Inc.), NSG mice (NOD.Cg-Prkdcscid Il2rgtm1Wjl/SzJ, Jackson Laboratory Japan, Inc.), or B6J mice (C57BL/6J, Jackson Laboratory Japan, Inc.) were habituated for 3 days or more under SPF conditions before experimental use. The mice were fed with sterilized solid feed and given sterilized tap water. The major and minor diameters of the transplanted tumors were measured twice a week with an electronic digital caliper (Mitutoyo Corporation), and the estimated tumor volume was calculated using the following formula. Estimated tumor volume (mm^3) = 1/2 × major diameter (mm) × [minor diameter (mm)]^2 All antibody-drug conjugates were diluted with ABS and administered into the tail vein at doses shown in each Example. In addition, ABS (vehicle) or control hIgG-PBD prepared in Reference Example 4 was administered as the control group, in a similar manner. 5 to 6 Mice were used per group in the experiment. To analyze the LRRC15 expression in mouse tumor models, immunohistochemical staining of LRRC15 was performed. […]

[2] = system: Head and neck carcinoma cell line Detroit 562; assay: In vivo antitumor effect, Detroit 562 subcutaneous transplant model; settings: 0.4 mg/kg, tail vein, on Day 10, female SCID mice
Procedure: as §1

B1: H02L01-V1-PBD (conjugate)
heavy: EVQLVESGGGLVQPGGSLRLSCAASGFTFRDYYMAWVRQAPGKGLEWVSSIGFDESRTYYADSVKGRFTISRDDSKNTLYLQMNSLRAEDTAVYYCARHGVSKYSGDNWFAYWGQGTLVTVSSASTKGPSVFPLAPSSKSTSGGTAALGCLVKDYFPEPVTVSWNSGALTSGVHTFPAVLQSSGLYSLSSVVTVPSSSLGTQTYICNVNHKPSNTKVDKKVEPKSCDKTHTCPPCPAPEAAGGPSVFLFPPKPKDTLMISRTPEVTCVVVDVSHEDPEVKFNWYVDGVEVHNAKTKPREEQYNSTYRVVSVLTVLHQDWLNGKEYKCKVSNKALAAPIEKTISKAKGQPREPQVYTLPPSREEMTKNQVSLTCLVKGFYPSDIAVEWESNGQPENNYKTTPPVLDSDGSFFLYSKLTVDKSRWQQGNVFSCSVMHEALHNHYTQKSLSLSPGK
light: DIQMTQSPSSLSASVGDRVTITCKSSQGLLYSGDQKNYLAWYQQKPGKAPKLLIYWASTRQSGVPSRFSGSGSGTDFTLTISSLQPEDFATYYCQQYYDPPYTFGQGTKVEIKRTVAAPSVFIFPPSDEQLKSGTASVVCLLNNFYPREAKVQWKVDNALQSGNSQESVTEQDSKDSTYSLSSTLTLSKADYEKHKVYACEVTHQGLSSPVTKSFNRGEC
[1]
  antitumor effect (estimated tumor volume): antitumor activity higher than that of the vehicle and control hIgG-PBD
[2]
  antitumor effect (estimated tumor volume): antitumor activity higher than that of the vehicle and control hIgG-PBD

From patent EP4703474A1, “ANTI-LRRC15 ANTIBODY” (priority 2023, dated 2024)
